Test results as given in paper PMC11662670, “Selective recognition of RNA G-quadruplex in vitro and in cells by L-aptamer–D-oligonucleotide conjugate”.

Target: T1, DHX36 (UniProt Q9H2U1 1-1008)
T1 sequence: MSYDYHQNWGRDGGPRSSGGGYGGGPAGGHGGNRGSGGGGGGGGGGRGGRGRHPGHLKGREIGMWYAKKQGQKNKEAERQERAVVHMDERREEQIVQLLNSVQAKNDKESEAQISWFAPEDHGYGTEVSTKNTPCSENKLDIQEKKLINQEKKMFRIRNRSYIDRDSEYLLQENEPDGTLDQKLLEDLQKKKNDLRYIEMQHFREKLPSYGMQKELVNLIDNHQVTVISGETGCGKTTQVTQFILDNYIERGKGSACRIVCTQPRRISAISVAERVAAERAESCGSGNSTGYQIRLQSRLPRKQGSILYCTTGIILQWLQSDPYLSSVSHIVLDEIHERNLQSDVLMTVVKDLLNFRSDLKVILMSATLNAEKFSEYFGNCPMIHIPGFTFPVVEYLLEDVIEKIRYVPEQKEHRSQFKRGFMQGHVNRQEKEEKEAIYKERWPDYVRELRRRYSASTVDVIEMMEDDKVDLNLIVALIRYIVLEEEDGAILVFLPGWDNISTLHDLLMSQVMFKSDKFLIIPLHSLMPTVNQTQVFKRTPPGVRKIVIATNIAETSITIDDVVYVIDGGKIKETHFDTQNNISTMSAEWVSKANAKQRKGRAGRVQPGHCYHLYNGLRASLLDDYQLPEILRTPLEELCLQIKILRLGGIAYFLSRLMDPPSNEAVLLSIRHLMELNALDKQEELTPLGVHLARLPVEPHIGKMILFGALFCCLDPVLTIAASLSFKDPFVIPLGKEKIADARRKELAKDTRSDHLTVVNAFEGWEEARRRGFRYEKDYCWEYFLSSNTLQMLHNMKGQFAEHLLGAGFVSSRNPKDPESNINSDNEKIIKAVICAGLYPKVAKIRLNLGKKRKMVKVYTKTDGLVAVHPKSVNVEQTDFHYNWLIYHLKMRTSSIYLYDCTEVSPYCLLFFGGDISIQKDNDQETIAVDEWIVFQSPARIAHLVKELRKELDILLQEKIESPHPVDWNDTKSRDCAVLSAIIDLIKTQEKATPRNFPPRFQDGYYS
Test: EMSA; EMSA: 150 mM KCl, 1 mM MgCl2, 25 mM Tris-HCl pH 7.5, 8% sucrose, 30 min at 37 C; gel at 4 C. Pull-down: same buffer without sucrose, 4 C
Conditions: protein: commercial; label: 5' HEX; intramolecular rG4 with 3' single-stranded flank

**Q.** For GGGGCGGGUGGGGAGGGGUGCUCUGCUGGUCUUCAAUU (structured_RNA) [HEX_APP rG4 wt region], which Kd is on record?
**A.** Its Kd is 51.3 ± 10.1 nM.
